Assay results from patent US10676527B2, “Methods and compositions for modulation of blood-neural barrier” (Ludwig Institute for Cancer Research Ltd, priority 2006, dated 2020).

B1: PDGF-BB: active platelet-derived growth factor BB dimer (from Preprotech Inc.) (protein, UniProt P01127 82-190, looked up)
Platelet-derived growth …: SLGSLTIAEPAMIAECKTRTEVFEISRRLIDRTNANFLVWPPCVEVQRCSGCCNNRNVQCRPTQVQLRPVQVRKIEIVRKKPIFKKATVTLEDHLACKCETVAAARPVT
B2: tPA: wild type murine tissue-type plasminogen activator, serine protease thrombolytic agent (protein, UniProt P11214 33-559, looked up)
Tissue-type plasminogen …: SYRATCRDEPTQTTYQQHQSWLRPMLRSSRVEYCRCNSGLVQCHSVPVRSCSEPRCFNGGTCQQALYFSDFVCQCPDGFVGKRCDIDTRATCFEEQGITYRGTWSTAESGAECINWNSSVLSLKPYNARRPNAIKLGLGNHNYCRNPDRDLKPWCYVFKAGKYTTEFCSTPACPKGKSEDCYVGKGVTYRGTHSLTTSQASCLPWNSIVLMGKSYTAWRTNSQALGLGRHNYCRNPDGDARPWCHVMKDRKLTWEYCDMSPCSTCGLRQYKRPQFRIKGGLYTDITSHPWQAAIFVKNKRSPGERFLCGGVLISSCWVLSAAHCFLERFPPNHLKVVLGRTYRVVPGEEEQTFEIEKYIVHEEFDDDTYDNDIALLQLRSQSKQCAQESSSVGTACLPDPNLQLPDWTECELSGYGKHEASSPFFSDRLKEAHVRLYPSSRCTSQHLFNKTVTNNMLCAGDTRSGGNQDLHDACQGDSGGPLVCMINKQMTLTGIISWGLGCGQKDVPGVYTKVTNYLDWIHDNMKQ

How the values were obtained:
BBB = test: Evans Blue extravasation (BBB opening) after intraventricular injection; assay type: in vivo; details: C57BL6 mice, 2 μl intraventricular, 3 μM, 1 hour after injection
Method: (§1) Wild type C57BL6 mice (10 Week old) were injected intraventricularly into the dorsal third ventricle with 2 μl of PBS, active PDGF-AA, PDGF-BB (both from Preprotech Inc.) and PDGF-CC (see below) (3 μM). Evans Blue was given intravenously immediately after the injection. One hour after the injection, the animals were perfused with PBS and the brain tissue was removed and processed for Evans Blue extravasation.
as §1, with “of either” for “of”, “PBS, wild type murine tPA (3 μM),” for “PBS,”, “active” for “active PDGF-AA, PDGF-BB (both from Preprotech Inc.) and”, “(3 μM), or wild type murine tPA (3 μM) plus active PDGF-CC” for “(see below)”
Wt C57BL6 mice (10 Week old) were injected intraventricularly with 3 μl of either PBS, wild type murine tPA (3 μM), wild type murine tPA (3 μM) with rabbit anti-PDGF-CC (150 μg/ml). Evans Blue was given intravenously immediately after the injection. One hour after the injection, the animals were perfused with PBS and the brain tissue was removed and processed for Evans Blue extravasation.

cerebral vessels = test: electron microscopy of cerebral vessels after intraventricular injection (edema); assay type: in vivo; details: mice, 2 μL at 1 μM intraventricular, 1 hour after injection, cortex
Method: Electron microscopy of vessels in the brain from mice treated by intraventricular injection 1 hour prior to analysis. Panel A, PBS; panel B, tPA (2 μL at a concentration of a 1 μM); panels C and D PDGF-CC (3 μL at a concentration of a 1 μM). Panels B-D show arterioles surrounded by fluid-filled spaces indicative of developing edema. The approximate magnification is indicated on each panel.
Specifically, tPA or active PDGF-CC (2 μL each at a concentration a 1 μM) were injected intraventricularly into mice, and morphological analysis of the cerebrovascular structure was performed. PBS was used as control. […] FIGS. 5B-D show arterioles surrounded by fluid-filled spaces indicative of developing edema. The approximate magnification is indicated on each panel.

Molecule | vascular permeability / opening of the BBB (Evans Blue extravasation) (BBB; Example 1, FIG. 1) | edema formation around cerebral vessels (transmission electron micrographs) (cerebral vessels) | opening of the BBB (Evans Blue extravasation) (BBB; Example 3, FIG. 3)
B1 | induce increased vascular permeability |  | 
B2 |  | induce areas of fluid accumulation surrounding the vessels | potent inducers of opening of the BBB
